Source: patent US20240254192A1

How the values were obtained:
[1] = target: CD30 expressed on primary T cells transduced with BCL6 and BCL2L1 (Homo sapiens (Human)) (UniProt P28908); experiment: cell-based or functional assay
[2] = target: tBCMA [BCMA extracellular domain - PDL1 hinge & TM plus Trop2 cytoplasmic domain]; experiment: cell-based or functional assay
tBCMA [BCMA extracellular domain - PDL1 hinge & TM plus Trop2 cytoplasmic domain], sequence (chain, as listed by the source limits assumed, form in doubt): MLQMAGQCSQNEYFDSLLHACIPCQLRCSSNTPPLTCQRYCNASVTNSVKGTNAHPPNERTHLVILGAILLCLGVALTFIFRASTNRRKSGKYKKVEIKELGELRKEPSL

CD30 expressed on primary T cells transduced with BCL6 and BCL2L1 (Homo sapiens (Human)), sequence (P28908 19-595 limits assumed): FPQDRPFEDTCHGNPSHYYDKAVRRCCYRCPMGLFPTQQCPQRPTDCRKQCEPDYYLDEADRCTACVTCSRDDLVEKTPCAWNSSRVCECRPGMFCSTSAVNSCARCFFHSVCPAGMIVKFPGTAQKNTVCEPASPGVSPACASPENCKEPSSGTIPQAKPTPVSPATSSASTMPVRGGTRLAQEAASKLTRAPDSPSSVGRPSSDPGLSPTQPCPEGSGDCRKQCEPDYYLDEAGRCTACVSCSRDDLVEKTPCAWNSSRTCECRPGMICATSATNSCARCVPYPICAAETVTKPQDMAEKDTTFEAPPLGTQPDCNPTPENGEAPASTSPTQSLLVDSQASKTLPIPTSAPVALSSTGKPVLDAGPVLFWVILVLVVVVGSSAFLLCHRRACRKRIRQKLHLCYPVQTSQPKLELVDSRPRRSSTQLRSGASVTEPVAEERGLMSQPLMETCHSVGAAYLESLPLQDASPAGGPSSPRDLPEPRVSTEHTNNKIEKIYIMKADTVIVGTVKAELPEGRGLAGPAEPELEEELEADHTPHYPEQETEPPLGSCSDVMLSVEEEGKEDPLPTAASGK

| percent change in live cell number [1] [%] | percent change in live cell number (day 2) [2] [%] | Substance |
| --- | --- | --- |
| < 95 |  | brentuximab vedotin (antibody) |
|  | < 80 | belantamab mafodotin (antibody) |
